Data published in patent US20160068592A1 (SEOUL NATIONAL UNIVERSITY R AND DB FOUNDATION, published 2016).

Assays:
[1] = molecular target: T1, beta chain of human C5 protein (human, UniProt P01031 19-673); experiment: immunoblot, SDS-PAGE under reducing condition
T1 construct: Seen as the beta-chain band of C5 on SDS-PAGE under reducing condition; also called C5 beta-chain

[2] = molecular target: T2, MG4 domain mutant d332-378 Fc fusion protein (human, UniProt P01031 397-469); experiment: immunoblot after SDS-PAGE
T2 construct: not shown: hinge region and CH2-CH3 domain of human IgG1
Source text: (§1) MG4 domain of the beta chain and five mutants from which the MG4 domain is sequentially removed from N-terminus of the MG4 domain were cloned. The primers were designed to add SfiI restriction sites at both the 5′ and 3′ ends (Table 13). The amplified PCR fragments were digested with SfiI and cloned into modified pCEP4 vector containing the hinge region and CH2-CH3 domain of human IgG1 at the 3′ region of the cloning site. These clones were transfected and Fc fusion proteins were purified as described in Example 5. The purified Fc fusion proteins were subjected to SDS-PAGE, and immunoblotting was performed as described above.

[3] = molecular target: T3, MG4 domain mutant d332-396 Fc fusion protein (human, UniProt P01031 415-469); experiment: immunoblot after SDS-PAGE
T3 construct: not shown: hinge region and CH2-CH3 domain of human IgG1
Source text: as §1

[4] = molecular target: T4, MG4 domain mutant d332-348 Fc fusion protein (human, UniProt P01031 367-469); experiment: immunoblot after SDS-PAGE
T4 construct: not shown: hinge region and CH2-CH3 domain of human IgG1
Source text: as §1

[5] = molecular target: T5, Fc fusion protein having an MG4 domain (human, UniProt P01031 350-469); experiment: immunoblot of beta-chain domain Fc fusion proteins
T5 construct: Amplified with MG4_F/MG4_R and cloned by SfiI into modified pCEP4; also called hMG4; MG4 domain of the C5 beta chain as Fc fusion protein; not shown: hinge region and CH2-CH3 domain of human IgG1, 3' of the cloning site

binding result [1]: binds
binding result [2]: no binding
binding result [3]: no binding
binding result [4]: no binding
binding result [5]: binds
B1: HRA-06-H2-1 (antibody, human IgG2, kappa, V domains shown)
VH: EVQLVESGGGLVQPGGSLRLSCAASGFSFSGRYWIQWVRQAPGKGLEWVASVWPGITGDTNYANWAKGRFTISRDDSKNTLYLQMNSLRAEDTAVYYCAREPVAWGGGLDLWGQGTLVTVSS
VL: DIQMTQSPSSLSASVGDRVTITCQASQSINNQLSWYQQKPGKAPKLLIYYASTLASGVPSRFSGSGSGTDFTLTISSLQPEDFATYYCQGSYYSGGWDYGFGQGTKVEIKR
notes: also called anti-complement C5 antibody HRA-06-H2-1; C5 Antibody (HRA-06-H2-1)
